Biological target: T1, HLA-A*0301 (human)
T1 construct: also called HLA-A3
Test: inhibition of 125I-labelled probe peptide binding to purified HLA-A*0301, gel filtration; ratio to standard peptide 941.12 ([..], 11 nM)

| Binder | relative binding ratio (IC50 of standard peptide / IC50 of test peptide) |
| --- | --- |
| GASCVTACPY [HER2/neu peptide, position 292, 10 amino acids] | 0.0003 |
| GLGISWLGLR [HER2/neu peptide, position 447, 10 amino acids] | 0.0037 |
| GLACHQLCAR [HER2/neu peptide, position 508, 10 amino acids] | 0.011 |
| GMEHLREVR [HER2/neu peptide, position 346, 9 amino acids] | -0.0002 |
| GTQRCEKCSK [HER2/neu peptide, position 327, 10 amino acids] | 0.021 |
| GLPREYVNAR [HER2/neu peptide, position 549, 10 amino acids] | 0.0002 |
| GILIKRRQQK [HER2/neu peptide, position 672, 10 amino acids] | 0.015 |
| GVVFGILIK [HER2/neu peptide, position 668, 9 amino acids] | 0.0047 |

Further lines, results first:

| relative binding ratio (IC50 of standard peptide / IC50 of test peptide) | Binder |
| --- | --- |
| 0.066 | GSGAFGTVYK [HER2/neu peptide, position 727, 10 amino acids] |
| -0.0002 | GMSYLEDVR [HER2/neu peptide, position 832, 9 amino acids] |
| 0.001 | GVGSPYVSR [HER2/neu peptide, position 776, 9 amino acids] |
| 0.0028 | GSGAFGTVY [HER2/neu peptide, position 727, 9 amino acids] |
| -0.0002 | FSRMARDPQR [HER2/neu peptide, position 976, 10 amino acids] |
| 0.0002 | GAGGMVHHR [HER2/neu peptide, position 1038, 9 amino acids] |
| -0.0002 | GAMPNQAQMR [HER2/neu peptide, position 704, 10 amino acids] |
| 0.0003 | HADGGKVPIK [HER2/neu peptide, position 878, 10 amino acids] |
| 0.0003 | GGAVENPEY [HER2/neu peptide, position 1188, 9 amino acids] |

Biological target: HLA-A*1101 (human)
Test: competition with 125I-labelled probe peptide for purified HLA-A*1101, gel filtration; standard peptide 940.06 [..] (6.0 nM)

| Binder | relative binding ratio |
| --- | --- |
| HTVPWDQLFR (also called Her2/neu.478) [HER2/neu peptide, position 478, 10 amino acids] | 0.072 ratio (IC50 of standard peptide / IC50 of test peptide) |
| HSCVDLDDK [HER2/neu peptide, position 632, 9 amino acids] | 0.0007 ratio (IC50 of standard peptide / IC50 of test peptide) |
| ILWKDIFHK (also called Her2/neu.167) [HER2/neu peptide, position 167, 9 amino acids] | 0.31 ratio (IC50 of standard peptide / IC50 of test peptide) |
| ILIKRRQQK [HER2/neu peptide, position 673, 9 amino acids] | 0.0097 ratio (IC50 of standard peptide / IC50 of test peptide) |
| LACHQLCAR [HER2/neu peptide, position 509, 9 amino acids] | 0.0003 ratio (IC50 of standard peptide / IC50 of test peptide) |
| HLDMLRHLY (also called Her2/neu.42) [HER2/neu peptide, position 42, 9 amino acids] | 0.0002 ratio (IC50 of standard peptide / IC50 of test peptide) |

Now from value to binder:

| relative binding ratio | Binder |
| --- | --- |
| 0.0004 ratio (IC50 of standard peptide / IC50 of test peptide) | KIRKYTMR [HER2/neu peptide, position 681, 8 amino acids] |
| 0.22 ratio (IC50 of standard peptide / IC50 of test peptide) | KVLRENTSPK [HER2/neu peptide, position 753, 10 amino acids] |
| 0.0099 ratio (IC50 of standard peptide / IC50 of test peptide) | KIPVAIKVLR [HER2/neu peptide, position 747, 10 amino acids] |
| 0.0023 ratio (IC50 of standard peptide / IC50 of test peptide) | ILKETELRK [HER2/neu peptide, position 714, 9 amino acids] |
